One assay has as its system MCF-7 cells. As to the kind of experiment: homophilic cell-cell adhesion assay (ratio NTC/NTE). The format is cell-based. As to the method: (§1) FIG. 4: FIG. 4 illustrates in: (A), β-catenin phosphorylated by ALK at tyrosine 333 decreases the association of β-catenin with cadherin. Recombinant E-cadherin serine 692 was phosphorylated with CK2 and GSK3β and incubated with recombinant GST-β-catenin, with GST-β-catenin phosphorylated in vitro by ALK, with GST-β-catenin Y333F, or with GST-β-catenin K292A, Y333F, K335A. The GST-conjugated proteins were captured with glutathione-conjugated beads and the phospho-Ser692-E-cadherin that associated with the GST-conjugated proteins was eluted and analyzed in Western blots probed with anti-β-catenin and anti-E-cadherin antibodies. […] After incubation for 20 minutes at 37° C., β-catenin was then captured with glutathione beads and, after extensive washing, eluted with SDS buffer and analyzed in Western blots with either anti-pan-cadherin antibodies, anti-phospho-tyrosine antibodies, or anti-β-catenin antibodies to determine if β-catenin phosphorylated by ALK at tyrosine 333 associates with cadherin. […] The ratio of cells dissociated in calcium-containing media (NTC) vs. the cells dissociated in calcium-free media (NTE) (a “dissociation index,” see Experimental Procedures) was measured. […] The morphological appearance was then analyzed 36 hours later and compared with cells transfected with an equal amount of control empty vector. […]

A further assay deals with β-catenin. The assay is described as follows: ubiquitination of β-catenin in HUVS cells (Rad23 capture). The format is cell-based, human. Particulars: 15 and 30 minutes after stimulation with PTN. The method, then: FIG. 12: FIG. 12 illustrates: human umbilical vein stromal cells not stimulated (lane 1) or stimulated with 50 ng/ml of PTN for 15 (lane 2), or 30 minutes (lane 3) were used to prepare cell lysates that were incubated with Rad23-conjugated agarose beads to pull-down ubiquitinated proteins and analyzed in Western-blots probed with anti-β-catenin antibodies (upper panel) and reprobed with anti-ubiquitin antibodies (lower panel). Cells pre-incubated with LY294002 were stimulated with PTN for 15 minutes (lane 4). Cells pre-incubated with lactacystin were stimulated with PTN for 15 minutes (lane 5).
Human umbilical vein stromal cells were lysed in a buffer prepared with 50 mM Tris, pH 7.2, 150 mM NaCl pH 7.5, 1% NP40, 0.25% sodium deoxicholate, Complete EDTA-free Protease Inhibitor Cocktail and 2 mM sodium orthovanadate. […] The beads were washed 4 times with lysis buffer and analyzed using Western blots.
β-catenin is rapidly degraded through the ubiquitin proteasome proteolytic pathway, thereby setting steady state levels of β-catenin by balancing its degradation with new synthesis of this key regulatory protein. […] Proteins captured with Rad23 Sepharose were eluted and analyzed in Western blots probed with anti-β-catenin antibodies (FIG. 12, upper panel) and the blots were reprobed with anti-ubiquitin antibodies (FIG. 12, lower panel). […]

The next assay relates to GSK3β. As to the kind of experiment: phosphorylation of GSK3β serine 9 in PTN-stimulated HUVS cells. The format is cell-based, human. Particulars: 5, 10 and 20 minutes after PTN. The method, then:
FIG. 11: FIG. 11 illustrates: human umbilical vein stromal cells not stimulated or stimulated with 50 ng/ml of PTN for 2, 5, 10 or 20 minutes were used to prepare cell lysates that were analyzed in Western blots probed with anti-phospho threonine 308 Akt (panel A), anti-phospho serine 473 Akt (panel B), anti-phospho-serine 9 GSK3β (panel C), anti-phospho-serine 33, 37 and […] β-catenin (panel D) or anti-actin antibodies (panel E). Akt was immunoprecipitated from those lysates using anti-Akt antibodies, incubated with a fusion peptide containing the 20 N-terminal amino acids of GSK3β and analyzed in Western-blots probed using anti-phospho-serine 9 GSK3β antibodies (panel F).
Lysates from HUVS cells stimulated with PTN as above were then analyzed in Western blots probed with anti-phosphoserine 9 GSK3β antibodies. GSK3β is known to be phosphorylated by Akt at serine 9 and to inactivate its catalytic activity. […]
The association of adaptor proteins that associate with specific phosphorylated sites in activated EGFR are responsible for the activation of phosphatidyl-inositol 3-kinase (PI3K). […] The cells were stimulated with PTN for 2, 5, 10, and 20 minutes, cell lysates were prepared, and the lysates were analyzed in Western blots probed with anti-phospho-Akt (Ser473), anti-phospho-GSKβ (Ser9), and anti-phospho-β-catenin (Thr42) antibodies. […]

A further assay relates to MCF10A cells. The assay is described as follows: morphological epithelial to mesenchymal transition in transfected MCF10A cells. The format is cell-based. Particulars: MCF10A cells transfected with RPTPβ/ζ and ALK, stimulated with PTN. As to the method: as §1
In the next assay the test system is Src. The assay is described as follows: phospho-Src tyrosine 416 Western blot in PTN-stimulated U87MG cells. Conditions: 50 ng PTN/ml for 5, 10, 15 minutes. Format: cell-based, human. Background: Immunoblotting shows a protein as a band on a membrane.

B1: pleiotrophin (protein, UniProt P21246 33-168, looked up)
Pleiotrophin: GKKEKPEKKVKKSDCGEWQWSVCVPTSGDCGLGTREGTRTGAECKQTMKTQRCKIPCNWKKQFGAECKYQFQAWGECDLNTALKTRTGSLKRALHNAECQKTVTISKPCGKLTKPKPQAESKKKKKEGKKQEKMLD
Take B1: the “ratio NTC/NTE” value was “about 0.38” in the assay on MCF-7 cells (PTN-stimulated MCF7 cells expressing both RPTPβ/ζ and ALK); “about 0.25” with MCF-7 cells (PTN-stimulated MCF-7 cells transfected with ALK alone). Further, in the assay on β-catenin, the “ubiquitinated β-catenin” value was “decreased sharply”. The “GSK3β serine 9 phosphorylation” value with GSK3β is recorded as “striking increase”. Further, the cell morphology entry with MCF10A cells is recorded as “assumed a mesenchymal fibroblast-like shape”. The “tyrosine phosphorylation of Src tyrosine 416” value in the assay on Src is listed as “not increased”.
